Data taken from the supplement of paper PMC10065799, “High-throughput profiling of sequence recognition by tyrosine kinases and SH2 domains using bacterial peptide display” (eLife, 2023).

system: Fer (mouse); assay: phosphorylation enrichment, bacterial display (enrichment ratio); higher = better substrate or ligand; peptides without Tyr show the background
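Note: 11-residue human phosphosite peptides and single-mutation variants displayed on the E. coli surface, counted by deep sequencing, each peptide's frequency after selection divided by its frequency in the unselected input library; frequency after pTyr selection over input frequency; kinase dosed for 20-30% of maximal phosphorylation in three min.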

| Sequence | phosphorylation enrichment |
| --- | --- |
| PFSNSYENSLI [EPOR_Y489_P488S_YF] | 0.809 |
| GHRPVYSEDEQ [CHST6_Y362_Y358H] | 0.501 |
| IEENGYNTYAS [FGF10_Y161] | 0.49 |
| SVTCTNSPALN [TP53_Y126_Y126N] | 0.588 |
| DGFIDYAEFAK [MCFD2_Y138_YF] | 0.456 |
| VFFDLYGGEKF [PTPN11_Y66_D61V_YF] | 0.509 |
| DGSALYTGSAL [COL6A3_Y524] | 0.643 |
| AHAGEYGEEAL [HBA1_Y25_A27E] | 0.615 |
| RLKAKYAAATG [GLI3_Y933] | 0.486 |
| YGAHKYHPLPV [OAT_Y55_N54K] | 1.08 |
| AISEGYKDFRA [CDA_Y79_V75I] | 0.313 |
| ARKWGYTVKGI [OAT_Y158] | 0.352 |
| FCRHNYGVVES [HLA-DRB1_Y112_YF] | 0.555 |
| EKMWSYMKSAE [GRIA3_Y705] | 0.398 |
| KNRDVYSSDYF [USP24_Y2134] | 0.495 |
| LIDSSYLTPTA [GREB1L_Y1063_R1066P] | 0.423 |
| FEGAIYRKDIG [GART_Y417_V421I] | 0.446 |

| Sequence | phosphorylation enrichment |
| --- | --- |
| RQAQAYRGQRV [TSHR_Y706] | 0.909 |
| LIHLHYIRKDF [BBS4_Y43_YF] | 0.984 |
| QTLTDYDIRFF [CSNK2A1_Y131_YF] | 0.604 |
| REVPVYTYSEP [FAM120B_Y368_D370Y] | 12.9 |
| IQRSLYDRPAS [PDGFRA_Y762] | 0.988 |
| TKDTFYKQPMF [GBA_Y451] | 0.362 |
| PLDGEYVTLQI [TP53_Y327_F328V] | 0.609 |
| LIGTPYWMAPE [PAK5_Y608_V604I] | 0.917 |
| RSHLPYDVTPE [IQGAP3_Y1098] | 0.474 |
| EAVLHYKHQNQ [MTOR_Y1804] | 0.492 |
| VPLATYMQIYK [RPL21_Y30_R32Q] | 0.315 |
| ARSHIYTFASC [MEFV_Y741] | 0.563 |
| GLGVTYEQALA [MAP2_Y996] | 0.423 |
| DFRTTYVNANE [KCNH2_Y475_N470D] | 0.38 |
| FIPFRYPKEFQ [IDS_Y234_H229Y_YF] | 0.323 |
| VVHSSYDEIEG [SEC24A_Y263] | 0.492 |

system: c-Src; assay: as above

| Sequence | phosphorylation enrichment |
| --- | --- |
| PFSNSYENSLI [EPOR_Y489_P488S_YF] | 0.862 |
| GHRPVYSEDEQ [CHST6_Y362_Y358H] | 0.48 |
| IEENGYNTYAS [FGF10_Y161] | 0.6 |
| SVTCTNSPALN [TP53_Y126_Y126N] | 0.504 |
| DGFIDYAEFAK [MCFD2_Y138_YF] | 0.675 |
| VFFDLYGGEKF [PTPN11_Y66_D61V_YF] | 2.04 |
| DGSALYTGSAL [COL6A3_Y524] | 0.536 |
| AHAGEYGEEAL [HBA1_Y25_A27E] | 0.582 |
| RLKAKYAAATG [GLI3_Y933] | 0.529 |
| YGAHKYHPLPV [OAT_Y55_N54K] | 0.562 |
| AISEGYKDFRA [CDA_Y79_V75I] | 0.499 |
| ARKWGYTVKGI [OAT_Y158] | 0.327 |
| FCRHNYGVVES [HLA-DRB1_Y112_YF] | 0.446 |
| EKMWSYMKSAE [GRIA3_Y705] | 0.467 |
| KNRDVYSSDYF [USP24_Y2134] | 2.67 |
| LIDSSYLTPTA [GREB1L_Y1063_R1066P] | 0.421 |
| FEGAIYRKDIG [GART_Y417_V421I] | 0.477 |

| Sequence | phosphorylation enrichment |
| --- | --- |
| RQAQAYRGQRV [TSHR_Y706] | 1.36 |
| LIHLHYIRKDF [BBS4_Y43_YF] | 0.527 |
| QTLTDYDIRFF [CSNK2A1_Y131_YF] | 0.481 |
| REVPVYTYSEP [FAM120B_Y368_D370Y] | 5.2 |
| IQRSLYDRPAS [PDGFRA_Y762] | 0.458 |
| TKDTFYKQPMF [GBA_Y451] | 0.42 |
| PLDGEYVTLQI [TP53_Y327_F328V] | 0.919 |
| LIGTPYWMAPE [PAK5_Y608_V604I] | 2.6 |
| RSHLPYDVTPE [IQGAP3_Y1098] | 1.27 |
| EAVLHYKHQNQ [MTOR_Y1804] | 0.364 |
| VPLATYMQIYK [RPL21_Y30_R32Q] | 1.16 |
| ARSHIYTFASC [MEFV_Y741] | 1.3 |
| GLGVTYEQALA [MAP2_Y996] | 0.503 |
| DFRTTYVNANE [KCNH2_Y475_N470D] | 0.378 |
| FIPFRYPKEFQ [IDS_Y234_H229Y_YF] | 0.565 |
| VVHSSYDEIEG [SEC24A_Y263] | 0.442 |
